According to PMC10167327, “Inositol pyrophosphates activate the vacuolar transport chaperone complex in yeast by disrupting a homotypic SPX domain interaction” (Nature Communications, 2023):
Changes are numbered by the printed parent chain.

T1: Vtc2* (Vtc2(1–553), SPX and TTM domains of Vtc2 without the transmembrane domain) (S. cerevisiae, UniProt P43585 1-553)
T1 construct: Vtc2, subunit of the vacuolar transporter chaperone (VTC) complex, S. cerevisiae, residues 1-553 (SPX and TTM domains, no transmembrane domain); pET27b(+) construct from GenScript with a C-terminal TEV site and His10 tag; source: E. coli Lemo21(DE3) BL21, purified (HisTrap, Superdex 200)
T1 sequence (looked up): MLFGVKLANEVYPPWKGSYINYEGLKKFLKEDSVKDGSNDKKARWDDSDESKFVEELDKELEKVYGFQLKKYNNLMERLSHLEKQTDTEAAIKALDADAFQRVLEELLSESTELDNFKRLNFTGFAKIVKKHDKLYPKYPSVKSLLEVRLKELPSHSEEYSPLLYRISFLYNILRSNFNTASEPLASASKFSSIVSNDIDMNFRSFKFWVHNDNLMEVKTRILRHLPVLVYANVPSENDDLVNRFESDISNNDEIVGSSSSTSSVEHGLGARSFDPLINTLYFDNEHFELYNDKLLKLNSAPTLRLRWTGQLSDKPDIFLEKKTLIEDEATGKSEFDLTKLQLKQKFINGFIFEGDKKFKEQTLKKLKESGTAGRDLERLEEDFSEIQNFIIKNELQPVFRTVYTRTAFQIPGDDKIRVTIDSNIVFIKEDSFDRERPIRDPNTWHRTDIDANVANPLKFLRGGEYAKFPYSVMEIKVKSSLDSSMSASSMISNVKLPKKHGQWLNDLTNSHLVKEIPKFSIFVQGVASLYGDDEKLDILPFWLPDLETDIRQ

B1: SPX2 S187A (domain or fragment, S. cerevisiae, UniProt P43585 1-201, looked up)
chain: MLFGVKLANEVYPPWKGSYINYEGLKKFLKEDSVKDGSNDKKARWDDSDESKFVEELDKELEKVYGFQLKKYNNLMERLSHLEKQTDTEAAIKALDADAFQRVLEELLSESTELDNFKRLNFTGFAKIVKKHDKLYPKYPSVKSLLEVRLKELPSHSEEYSPLLYRISFLYNILRSNFNTASEPLAAASKFSSIVSNDIDM
notes: Vtc2, S. cerevisiae, residues 1-201 (SPX2) with a point mutation in helix α7; also called serine 187 to alanine; source: E. coli Lemo21(DE3) BL21, purified; not shown: His5, C-terminal, cleaved
B2: SPX2 (SPX domain of Vtc2, Vtc2(1–201)) (domain or fragment, S. cerevisiae, UniProt P43585 1-201, looked up)
chain: B1 chain with A187S
notes: Vtc2, S. cerevisiae, residues 1-201 (SPX domain with helix α7 and the C-terminal linker); Residues of the TEV site may remain at the C-terminus after cleavage; also called Vtc2-SPX domain; source: E. coli Lemo21(DE3) BL21, purified (HisTrap, TEV, reversed HisTrap, cation exchange, Superdex 75); not shown: His5, C-terminal, cleaved
B3: SPX2 Y19F (domain or fragment, S. cerevisiae, UniProt P43585 1-201, looked up)
chain: B1 chain with Y19F, A187S
notes: Vtc2, S. cerevisiae, residues 1-201 (SPX2) with a pseudo-active point mutation; source: E. coli Lemo21(DE3) BL21, purified; not shown: His5, C-terminal, cleaved
B4: SPX2 N121A (domain or fragment, S. cerevisiae, UniProt P43585 1-201, looked up)
chain: B1 chain with N121A, A187S
notes: as for B3
B5: SPX2 S189A (domain or fragment, S. cerevisiae, UniProt P43585 1-201, looked up)
chain: B1 chain with A187S, S189A
notes: Vtc2, S. cerevisiae, residues 1-201 (SPX2) with a point mutation in helix α7; also called serine 189 to alanine; source: E. coli Lemo21(DE3) BL21, purified; not shown: His5, C-terminal, cleaved
B6: SPX2 K127A (domain or fragment, S. cerevisiae, UniProt P43585 1-201, looked up)
chain: B1 chain with K127A, A187S
notes: as for B3
B7: Vtc4* (Vtc4(1–487), SPX and TTM domains of Vtc4 without the transmembrane domain) (domain or fragment)
chain: not shown
modifications: RED-tris-NTA 2nd generation dye on the His tag (MST); RED-NHS 2nd generation dye (MST with TTM2)
notes: Vtc4, catalytic subunit of the vacuolar transporter chaperone (VTC) complex, yeast, residues 1-487 (SPX and TTM domains, no transmembrane domain); pET27b(+) construct from GenScript with a C-terminal TEV site and His10 tag; The dye is absent in NMR and cross-linking; also called Vtc4ΔTM; source: E. coli Lemo21(DE3) BL21, purified (HisTrap, Superdex 200); not shown: His10, C-terminal, kept
B8: SPX2∆α7 (Vtc2(1–182)) (domain or fragment, S. cerevisiae, UniProt P43585 1-182, looked up)
chain: MLFGVKLANEVYPPWKGSYINYEGLKKFLKEDSVKDGSNDKKARWDDSDESKFVEELDKELEKVYGFQLKKYNNLMERLSHLEKQTDTEAAIKALDADAFQRVLEELLSESTELDNFKRLNFTGFAKIVKKHDKLYPKYPSVKSLLEVRLKELPSHSEEYSPLLYRISFLYNILRSNFNTAS
notes: Vtc2, S. cerevisiae, residues 1-182 (SPX domain without helix α7 and the C-terminal linker); source: E. coli Lemo21(DE3) BL21, purified (as SPX2, cation exchange in 20 mM MES pH 6.0); not shown: His5, C-terminal, cleaved

How the values were obtained:
Test in all cases: MST; His-tagged Vtc4* or TTM4 labelled with RED-tris-NTA 2nd generation dye, titrated with Vtc2* or SPX2 proteins; MST buffer 15 mM HEPES pH 7.0, 50 mM NaCl, 2 mM DTT; Monolith NT.115, 100 % laser power
Conditions in all cases: both partners purified
[1] = biological target: B7
[2] = biological target: T2, TTM4 (TTM domain of Vtc4, Vtc4(192–487)) (S. cerevisiae, UniProt P47075 192-487, RED-tris-NTA 2nd generation dye on the His tag)
T2 construct: Vtc4, yeast, residues 192-487 (triphosphate tunnel metalloenzyme domain); pET27b(+) construct from GenScript with a C-terminal TEV site and His10 tag; source: E. coli Lemo21(DE3) BL21, purified (HisTrap, Superdex 200); not shown: His10, C-terminal, kept
T2 sequence (P47075 192-487): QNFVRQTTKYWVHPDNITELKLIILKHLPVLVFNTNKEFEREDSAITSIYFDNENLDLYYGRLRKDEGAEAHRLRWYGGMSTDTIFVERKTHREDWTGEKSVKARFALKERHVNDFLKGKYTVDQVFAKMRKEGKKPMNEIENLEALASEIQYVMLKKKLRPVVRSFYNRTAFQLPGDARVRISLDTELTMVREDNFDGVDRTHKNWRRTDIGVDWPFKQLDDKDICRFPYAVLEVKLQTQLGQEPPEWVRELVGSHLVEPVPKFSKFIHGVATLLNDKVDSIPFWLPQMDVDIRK

[3] = biological target: T1, Vtc2* (Vtc2(1–553), SPX and TTM domains …)

| binding result [1] | Binder | further results |
| --- | --- | --- |
| binds | B1 |  |
|  | B2 | fold reduction of affinity against Vtc4* [2]: ~20 fold |
| binds | B3 |  |
| binds | B4 |  |
| binds | B5 |  |
| binds | B6 |  |
|  | B7 | Kd [3]: 13.8 µM |
| binds | B8 |  |
